From patent US20230071765A1, “COMPOSITIONS HAVING THIOREDOXIN ACTIVITY AND RELATED METHODS” (ORPRO THERAPEUTICS, INC., priority 2020, published 2023)

Tests used:
[1] = thiol pKa (acid-dissociation constant); assay type: physicochemical; settings: verified experimentally, data not shown
Text: The human CF airway surface liquid is approximately 0.8 pH units more acidic than that of unaffected individuals due to the loss of bicarbonate-mediated buffering of proton secretion (Garland A L, Walton W G, Coakley R D, et al., 2013, Molecular basis for pH-dependent mucosal dehydration in cystic fibrosis airways. PNAS 110:15973-8; Shah V S, Meyerholz D K, Tang X X, et al., 2016, Airway acidification initiates host defense abnormalities in cystic fibrosis mice, Science 351:503-7). This has consequences for the clinical use of reducing agents to treat condensed, abnormal mucus. […] Cys thiol pKa values range from pH 8.5 (cysteamine) to pH 9.5 (NAC). In marked contrast to these classical thiols, the structurally-stabilized pKa of the Trx active site Cys32 is two to three logs lower (pH 6.1-6.3), allowing high activity even at acidic CF airway pH (FIG. 2).

human insulin = target: T1, human insulin (Homo sapiens, UniProt P01308); test: RP-HPLC insulin reduction assay (conversion of insulin heterodimer); assay type: biochemical; settings: for Relative % insulin reduction: relative to maximum
T1 construct: The two chains of human insulin have a total of six Cys residues which form three disulfide bonds in its mature structure
T1 sequence (P01308 25-54 limits assumed): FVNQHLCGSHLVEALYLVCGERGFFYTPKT
T1 sequence (P01308 90-110 limits assumed): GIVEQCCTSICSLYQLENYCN
Protocol: Functional assays 1. Reduction state of ORP100S was quantified using DTNB which reacts with free SH groups resulting in a yellow color change at 412 nm. Fifty microliters of 2.5 mM rhTrx was added to a 96-well plate, followed by 175 microliters of sample buffer and 25 microliters of 6 mM DTNB. After reactions were initiated by the addition of DTNB, change in kinetic absorbance at 412 nm due to DTNB reduction was monitored spectrophotometrically at 30° C. ORP100S concentration was determined by A280 (Nanodrop) using the extinction coefficient of human Trx-1 (7,000). The actual concentrations of free sulfhydryl groups were calculated based on the absorbance at 412 nm and the extinction coefficient of DTNB (14,150) in order to determine the reduction state as percentage of free sulfhydryl. […] 2. Percent of free monomer ORP100S in solution was determined using SEC. Samples were analyzed on a BioBasic S-300 250×4.6 column (Thermo Scientific) run on an Agilent 1100 HPLC system. The SEC-HPLC mobile phase buffer consisted of 40 mM ammonium acetate (pH 5.5), 2 mM EDTA and 450 mM NaCl. Low pH minimized dimerization while the 450 mM NaCl concentration improved resolution. The flow rate was 0.35 mL/min and absorbance was monitored at 280 nm. The length of each run was 20 minutes. The ORP100S monomer percentage was determined by integration of the area under the peak of the monomeric fraction divided by the total area under the curve of the chromatogram. 3. Disulfide bond reduction activity of ORP100S was quantified by assaying the reduction state of a small protein (human insulin) which in its heterodimeric form contains two intermolecular and one intramolecular disulfide, all three of which are known to be suitable thioredoxin substrates. Insulin reduction has classically been used to quantify thioredoxin activity by absorbance change following addition of NADPH and TrxR (Holmgren A., 1979, Thioredoxin catalyzes the reduction of insulin disulfides by dithiothreitol and dihydrolipoamide, J Biol Chem 254:9627-32). Such an approach is not suitable for monothiol C35S thioredoxins ORP-100 and ORP100S due to 1) the lack of cycling resulting from stoichiometric covalent linkage to the disulfide bond substrate and 2) the inability of NADPH and TrxR to reduce Cys32 of the oxidized monothiol Trx active site. Consequently, a new assay was developed based on the use of reverse-phase (RP) HPLC to monitor the rate of conversion of disulfide-bonded insulin heterodimers to monomeric forms. The two chains of human insulin have a total of six Cys residues which form three disulfide bonds in its mature structure. When ORP100S in the reduced form is incubated with dimeric insulin it reacts with these disulfide bonds to disrupt them, simultaneously forming covalent linkages to the ORP100S Cys32. […] The ORP100S samples were incubated with 10 mg/mL insulin for various time points (0-90 min) and the reactions were stopped by addition of iodacetic acid (IA) and trifluoroacetic acid (TFA). Relative activity at each time point was determined from changes in the area under the insulin heterodimer peak following separation over RP-HPLC (Agilent 1100) using an Intrada WP-RP 50×3 (Imtakt) column. Buffer A was 0.1% TFA and Buffer B was 0.1% TFA in acetonitrile. The gradient was […] in 5 min followed by 30 to 60% B in 45 min, then 60 to 80% B for an additional 5 min. The flow rate was 0.2 mL/min and absorbance was measured at 280 nm. In order to evaluate the change in the intact insulin molecule a time 0 baseline was first established using 1 M IA and 0.1% TFA without the addition of ORP100S. The area under the intact insulin heterodimer peak was then determined and set as equivalent to 100%. After the reaction with ORP100S the area of the intact insulin peak (corresponding to retention time) was measured. The percent reduction in intact insulin was then calculated from the decrease in the area following reduction divided by the area at time 0 multiplied by 100.

Sprague-Dawley rats = test: nebulized aerosol inhalation in rats, inflammatory potential and toxicity; assay type: in vivo, rat
Protocol: This example evaluated and compared the in vivo inflammatory potential among three forms of C35S monothiol Trx (oxidized ORP-100, reduced ORP-100, and reduced ORP100S) formulated in the sucrose/EDTA formulation composition described in PCT WO 2006/090127 and delivered to normal rats as nebulized aerosols at doses of […] and 40 mg/kg.
All three forms of ORP-100 were lyophilized following reduction with DTT and formulated in sucrose buffer (9% sucrose 1.17 mM EDTA pH 5.2). All test articles were evaluated at low (10 mg/kg) and high (40 mg/kg) target delivered doses. The test articles were administered to Charles River Sprague-Dawley rats via inhalation as an aerosol. The aerosol of each of the test articles was produced by a commercially available vibrating mesh nebulizer whose output was attached to a nose-only exposure system.
Target doses were achieved via modulation of the aerosol exposure time while maintaining the aerosol concentration constant. Animals in Low Dose groups received a single dose of test article during a 20 minute exposure to achieve a target delivered dose of 10 mg/kg and deposited dose of 1 mg/kg. Animals in High Dose groups received a single dose of test article during a 75 minute exposure to achieve a target delivered dose of 40 mg/kg and target deposited dose of 4 mg/kg.
Animals in each study group were evaluated for potential toxicity by measuring various parameters including: clinical signs, body weight, clinical pathology (BALF cell counts, LDH and albumin measurements), lung tissue cytokines, lung weights, gross pathology, and microscopic pathology of respiratory target tissues. Additionally, three animals in each Low Dose group had lung tissues collected for immunohistochemistry (Alizèe Pathology, Thurmont, M D). Three (3) animals in each Low Dose group were to be euthanized at 1 hour and 4 hours post exposure for blood and tissue collections. Four (4) animals in each High Dose group were euthanized at 4 and 20 hours post exposure for blood and tissue collections.

B1: ORP100S: thioredoxin with monothiol active site, Cys35 and non-active Cys 62, 69 and 73 substituted with serine (SEQ ID NO:29) (protein)
chain: MVKQIESKTAFQEALDAAGDKLVVVDFSATWCGPSKMIKPFFHSLSEKYSNVIFLEVDVDDSQDVASESEVKSMPTFQFFKKGQKVGEFSGANKEKLEATINELV
modifications: synthetic peptide motif
pKa compared to native Trx [1]: same pKa as native Trx
Relative % insulin reduction (human insulin; Ox:Red 0:100 mixture): 100%
Relative % insulin reduction (human insulin; Ox:Red 25:75 mixture): 72%
Relative % insulin reduction (human insulin; Ox:Red 50:50 mixture): 51%
Relative % insulin reduction (human insulin; Ox:Red 75:25 mixture): 36%
Relative % insulin reduction (human insulin; Ox:Red 100:0 mixture): 8%
maximum insulin heterodimer reaction (human insulin; fully reduced material, time and conditions used): 45%
differences in BALF LDH, albumin, cell counts, differential counts and lung tissue cytokines vs. oxidized ORP-100 control groups (Sprague-Dawley rats; low and high dose aerosol): unremarkable
neutrophil influx (sucrose/EDTA formulation effect) (Sprague-Dawley rats; sucrose/EDTA formulation, nebulized aerosol): abrogated neutrophil influx almost completely
adverse test article effects (clinical observations, BALF chemistry, cell count, differential, lung cytokines, macroscopic and microscopic findings) (Sprague-Dawley rats; target delivered doses 10 mg/kg and 40 mg/kg, aerosol, 1, 4 or 20 hours post exposure): no evidence of adverse test article effects
